A value given as a limit tells only on which side of the number the result lay.

This experiment concerns the target Mammalian (Human) 20S Proteasome (Mammalian (Human)). Kind of experiment: cell-based or functional assay.

B1: F8W12 (peptide)
peptide: RRRPRPPFLPRW
In the case of B1, the “I50 (µM), inhibition of chymotrypsin-like (ChT-L) peptidase activity of 20S proteasome, N-succinyl-LLVY-AMC substrate” value (“I50 (µM), inhibition” below) was 0.034 µM.

B2: A6 (peptide)
peptide: RRRPRAPYLPR
On to B2, for which the “I50 (µM), inhibition” value was determined as 1.22 µM.

B3: A1E8 (peptide)
peptide: ARRPRPPELPR
On to B3, for which the “I50 (µM), inhibition” value was 49.4 µM.

B4: A1 (peptide)
peptide: ARRPRPPYLPR
Turning to B4, the “I50 (µM), inhibition” value was 2.81 µM.

B5: A4 (peptide)
peptide: RRRARPPYLPR
For the molecule B5, the “I50 (µM), inhibition” value was 4.99 µM.

B6: K2 (peptide)
peptide: RKRPRPPYLPR
Regarding B6, the “I50 (µM), inhibition” value came out at 0.543 µM.

B7: K1E8 (peptide)
peptide: KRRPRPPELPR
For B7, the “I50 (µM), inhibition” value was determined as 6.34 µM.

B8: K3 (peptide)
peptide: RRKPRPPYLPR
On to B8, for which the “I50 (µM), inhibition” value came to 0.819 µM.

B9: E8 (peptide)
peptide: RRRPRPPELPR
For the molecule B9, the “I50 (µM), inhibition” value stood at 2.37 µM.

B10: KKK (peptide)
peptide: KKKPRPPYLPR
As to B10, the “I50 (µM), inhibition” value came to 2.71 µM.

B11: K1 (peptide)
peptide: KRRRPPYLPR
On to B11, for which the “I50 (µM), inhibition” value turned out to be 0.595 µM.

B12: AAA-PR11 (peptide)
peptide: AAAPRPPYLPR
Take B12: the “I50 (µM), inhibition” value is over 100 µM.

B13: W12 (peptide)
peptide: RRRPRPPYLPRW
As to B13, the “I50 (µM), inhibition” value turned out to be 0.006 µM.

B14: PR11 (peptide)
peptide: RRRPRPPYLPR
Take B14: the “I50 (µM), inhibition” value came to 0.805 µM.

B15: RAA (peptide)
peptide: RAAPRPPYLPR
On to B15, for which the “I50 (µM), inhibition” value was found to be 20.1 µM.

B16: A11 (peptide)
peptide: RRRPRPPYLPA
As to B16, the “I50 (µM), inhibition” value turned out to be 0.685 µM.

B17: A3 (peptide)
peptide: RRAPRPPYLPR
Turning to B17, the “I50 (µM), inhibition” value worked out at 3.15 µM.

B18: A5 (peptide)
peptide: RRRPAPPYLPR
Regarding B18, the “I50 (µM), inhibition” value was determined as 2.65 µM.

B19: PR39 (peptide)
peptide: RRRPRPPYLPRPRPPPFFPPRLPPRIPPGFPPRFPPRFP
B19: the “I50 (µM), inhibition” value came to 0.004 µM.

B20: A10 (peptide)
peptide: RRRPRPPYLAR
As for B20, the “I50 (µM), inhibition” value came out at 0.782 µM.

B21: AAR (peptide)
peptide: AARPRPPYLPR
For B21, the “I50 (µM), inhibition” value was found to be 14.5 µM.

B22: E8W12 (peptide)
peptide: RRRPRPPELPRW
Take B22: the “I50 (µM), inhibition” value was 2.62 µM.

B23: A8W12 (peptide)
peptide: RRRPRPPALPRW
On to B23, for which the “I50 (µM), inhibition” value was 0.715 µM.

B24: G9 (peptide)
peptide: RRRPRPPYGPR
Turning to B24, the “I50 (µM), inhibition” value was 0.137 µM.

B25: A2 (peptide)
peptide: RARPRPPYLPR
For B25, the “I50 (µM), inhibition” value is 2.77 µM.

B26: ARA (peptide)
peptide: ARAPRPPYLPR
As to B26, the “I50 (µM), inhibition” value stood at 11.3 µM.

B27: A7 (peptide)
peptide: RRRPRPAYLPR
On to B27, for which the “I50 (µM), inhibition” value was determined as 0.851 µM.

The record behind these values is US20090068736A1 (TRUSTEES OF DARTMOUTH COLLEGE, published 2009).
